According to article PMC4785722 (Journal of molecular biology, 2009):

Target: the molecule itself
Test: native MS

B1: bacteriophage MS2 coat protein dimer (natural protein)
chain: ASNFTQFVLVDNGGTGDVTVAPSNFANGVAEWISSNSRSQAYKVTCSVRQSSAQNRKYTIKVEVPKVATQTVGGVELPVAAWRSYLNMELTIPIFATNSDCELIVKAMQGLLKDGNPIPSAIAANSGIY
  stoichiometry N: 10 CP2 dimers
